According to patent US20220025056A1 (INNATE PHARMA, published 2022):

How the values were obtained:
[1] = target: T1, anchored ILT2 D2 domain protein (human); experiment: flow cytometry, CHO cells with anchored ILT2 domain proteins
T1 construct: on CHO cells; the entry includes leader remnant, V5 tag and CD24 GPI anchor signal

[2] = target: T2, anchored ILT2 D4 domain protein (human, UniProt Q8NHL6 322-650); experiment: as above
T2 construct: on CHO cells; the entry includes leader remnant, V5 tag, and the ILT2 transmembrane and cytoplasmic parts
T2 sequence (Q8NHL6 other isoform, or with tags, fused parts or gaps limits assumed): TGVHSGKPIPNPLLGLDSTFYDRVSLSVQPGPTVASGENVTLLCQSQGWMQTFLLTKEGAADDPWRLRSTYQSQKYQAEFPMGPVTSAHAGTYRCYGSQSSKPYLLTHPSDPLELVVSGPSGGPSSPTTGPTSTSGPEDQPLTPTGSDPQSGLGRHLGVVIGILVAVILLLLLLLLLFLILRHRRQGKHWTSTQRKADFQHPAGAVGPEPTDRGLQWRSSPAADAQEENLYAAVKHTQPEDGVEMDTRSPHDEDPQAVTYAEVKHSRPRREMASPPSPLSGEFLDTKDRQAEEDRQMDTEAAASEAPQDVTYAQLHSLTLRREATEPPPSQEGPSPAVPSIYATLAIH

ILT2 mutant 2 = target: T3, ILT2 mutant 2 (human, UniProt Q8NHL6 24-650); experiment: flow cytometry, ILT2 point mutants
T3 construct: transfected in HEK293T cells; also called M2
T3 sequence (Q8NHL6 other isoform, or with tags, fused parts or gaps mutant): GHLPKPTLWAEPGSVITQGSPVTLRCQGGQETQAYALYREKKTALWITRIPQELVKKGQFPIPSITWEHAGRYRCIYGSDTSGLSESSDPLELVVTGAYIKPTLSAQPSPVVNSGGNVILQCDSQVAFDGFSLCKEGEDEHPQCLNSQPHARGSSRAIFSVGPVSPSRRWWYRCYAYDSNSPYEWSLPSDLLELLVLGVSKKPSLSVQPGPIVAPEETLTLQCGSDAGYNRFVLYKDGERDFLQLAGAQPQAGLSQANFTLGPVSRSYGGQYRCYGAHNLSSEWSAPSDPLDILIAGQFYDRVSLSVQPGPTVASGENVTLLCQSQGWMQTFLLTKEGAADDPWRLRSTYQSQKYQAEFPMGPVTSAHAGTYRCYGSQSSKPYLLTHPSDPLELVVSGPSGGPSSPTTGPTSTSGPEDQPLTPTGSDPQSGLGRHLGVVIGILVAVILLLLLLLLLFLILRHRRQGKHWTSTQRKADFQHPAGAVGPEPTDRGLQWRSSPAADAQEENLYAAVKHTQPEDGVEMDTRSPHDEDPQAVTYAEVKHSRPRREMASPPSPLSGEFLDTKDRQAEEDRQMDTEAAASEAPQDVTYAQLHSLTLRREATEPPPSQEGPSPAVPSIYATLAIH

[3] = target: T4, human ILT6 (LILRA3) on CHO cells (human, UniProt Q8N6C8 24-434); experiment: flow cytometry, CHO transfectants
T4 construct: also called CHO ILT6 cell line; human ILT-6 polypeptide
T4 sequence (Q8N6C8 other isoform, or with tags, fused parts or gaps): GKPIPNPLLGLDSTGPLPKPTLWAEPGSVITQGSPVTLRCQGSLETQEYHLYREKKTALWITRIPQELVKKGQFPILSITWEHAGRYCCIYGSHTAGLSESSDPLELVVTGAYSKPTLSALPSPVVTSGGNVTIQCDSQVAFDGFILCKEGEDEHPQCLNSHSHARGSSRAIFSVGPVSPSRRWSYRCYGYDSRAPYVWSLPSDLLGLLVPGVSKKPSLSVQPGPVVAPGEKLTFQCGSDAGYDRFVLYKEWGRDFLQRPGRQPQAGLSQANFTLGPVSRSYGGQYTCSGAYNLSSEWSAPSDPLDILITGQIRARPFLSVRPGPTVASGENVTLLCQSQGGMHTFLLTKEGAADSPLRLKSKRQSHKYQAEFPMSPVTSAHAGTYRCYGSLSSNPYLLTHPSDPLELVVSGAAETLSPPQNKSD

T1 sequence (chain, as listed by the source limits assumed): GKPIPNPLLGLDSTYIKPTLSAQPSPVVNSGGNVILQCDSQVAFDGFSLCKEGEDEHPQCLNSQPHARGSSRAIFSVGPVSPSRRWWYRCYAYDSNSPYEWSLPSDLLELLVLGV

| binding result [1] | binding result [2] | binding result (ILT2 mutant 2) | binding result [3] | Binder |
| --- | --- | --- | --- | --- |
| no binding | no binding | – | – | 1A9 (antibody, human IgG1, V domains shown) VH: EVKLQQSGPDLVKPGASVKISCKASGYSFTNFYIHWVKQRPGQGLEWIGWIFPGNGETNYSEKFKGKATLTADTSSSTAYMQFNSLTYEDSAVYFCARTWNYDARWGYWGQGTTLTVSS VL: DVVMTQTPASLAVSLGQRATISCRASDGIDSYGISFMRWYQQKPGQPPTLLIYRASTLESGIPARFSGSGSRTNFTLTINPVEADDVATYYCQQTNEDPFTFGSGTKLEIK |
| – | – | no binding | no binding | 2A9 (antibody, human IgG1, V domains shown) VH: EVKLQQSGPELVKPGASVKISCKASGYSFTNYYIHWVKQRPGQGLEWIGWIFPGSGETNYNEKFKVKATLSADTSSTTAYMQLSSLTSEDSAVYFCARTWNYDARWGYWGQGTTLTVSS VL: DVVVTQTPASLAVSLGQRATISCRASESIDSYGISFMHWYQQKPGQPPKLLIYRASNLESGIPARFSGSGSRTDFTLTINPVEADDVATYYCQQSNEDPFTFGSGTKLEIK |
| – | – | no binding | no binding | 2H12 (antibody, human IgG1, V domains shown) VH: EVKLQQSGPDLVKPGASVKISCKASGYSFTNFYIHWVKQRPGQGLEWIGWIFPGNGETNYSEKFKGKATLTADTSSSTAYMQFNSLTYEDSAVYFCARTWNYDARWGYWGQGTTLTVSS VL: DILLTQSPASLAVSLGQRATISCRASDGIDSYGISFMHWYQQKPGQPPTLLIYRASTLESGIPARFSGSGSRTDFTLTINPVEADDVATYYCQQTNEAPFTFGSGTKLELK |
| – | – | no binding | no binding | 2A8A (antibody, human IgG1, V domains shown) VH: QVQLQQSGPELVKPGASVKISCKASGYSFTNFYIHWVRQRPGQGLDWIGWIFPGSGETKFNEKFKVKATLTADTSSSTAYMQLNSLTSEDSAVYFCARSWNYDARWGYWGQGTSVTVSS VL: QIVLTQSPASLAVSLGQRATISCRASESIDSYGISFLHWYQQKPGQPPKLLIYRASNLESGIPARFSGSGSRPDFTLTINPVEADDVATYYCQQSNEDPFTFGSGTKLEIK |
| – | – | no binding | no binding | 4E3B (antibody, human IgG1, V domains shown) VH: EVHLQQSGPELVKPGASVKISCKASGYSFTNYYIQWVKQRPGQGLEWIGWIFPGSGETNYNENFRAKATLSADTSSTTAYMQLSSLTSEDSAVYFCARTWNYDARWGYWGQGTTVTVSS VL: DILLTQSPASLAVSLGQRATISCRPSENIDSYGISFMHWCQQKPGQPPKLLIYRASNLESGIPVRFSGSGSRTDFTLTINPVEADDVATYYCQQSNEDPFTFGSGTKLEIK |
| – | – | no binding | no binding | 1A10D (antibody, human IgG1, V domains shown) VH: QVQLKQSGPELVKPGASVKISCKASGYSFTNYYIHWVKQRPGQGLEWIGWIFPGSGETNFNEKFKGKATLTADTSSSTAYMQFSSLTSEDSAVYFCARTWNYDARWGYWGQGTTVTVSS VL: EIVLTQSPASLAVSLGQRATISCRASESIDSYGISFMHWYQQKPGQPPKLLIYRASNLESGIPARFSGSGSRTDFTLTINPVEADDVATYYCQQSNEDPFTFGSGTKLEIK |
| – | – | no binding | no binding | 4C11B (antibody, human IgG1, V domains shown) VH: QVQLKESGPELVKPGASVKISCKASGYSFTNYYIHWVKQRPGQGLEWIGWIFPGSGETNYSEKFKGEAILTADTSSNTAYMQLSSLTSEDSAVYFCARSWNYDARWGYWGQGTTLTVSS VL: QIVLSQSPVSLAVSPGQRATISCRASESIDSYGISFMHWYKQKPGQPPKLLIYRASNLESGIPARFSGSGSRTDFTLTINPVEADDVATYYCQQSNEDPFTFGSGTKLEIK |
| – | – | no binding | no binding | 2E2B (antibody, human IgG1, V domains shown) VH: DVQLVESGPELVKPGASVKISCKASGYSFTNYYMQWVKQRPGQGLEWIGWIFPGGGESNYNEKFKGKATLSADTSSTTAYMQLSSLTSEDSAVYFCARTWNYDARWGYWGQGTTVTVSS VL: DIVLTQSPASLAVSLGQRATISCIPSESIDSYGISFMHWYQQKPGQPPKLLIYRASNLESGIPARFSGSGSRTDFTLTINPVEADDVATYYCQQSNEDPFTFGSGTKLEIK |
| – | – | no binding | no binding | 3E5 (antibody, human IgG1, V domains shown) VH: DVQLQESGPELVKPGASVKISCKSSGYSFTNFYIHWVKQRPGQGLDWIGWIFPGTGETNFNEKFKVKAALTADTSSSTVYMQLSTLTSEDSAVYFCARSWNYDARWGYWGQGTSITVSS VL: ENVLTQSPASLAVSLGQRATISCRASESIDSFGISFMHWYQQKPGQPPKLLIYRASNLESGIPARFSGSGSGPDFSLTIDPVEADDVATYYCQQSNEAPFTFGSGTKLEIK |
| – | – | no binding | no binding | 2D8 (antibody, human IgG1, V domains shown) VH: EVQLQQSGPELVKPGASVKISCKSSGYSFTNFYIHWVKQRPGQGLDWIGWIFPGSGETNFNEKFKVKAALTADTSSNTAYMQLSSLTSEDSAVYFCARSWNYDARWGYWGQGTTVTVSS VL: DAVMTQTPASLAVSLGQRATISCRASESVDSYGISFMHWYQQKPGQPPKLLIYRASILESGIPARFSGSGSRPDFSLTINPVEADDVATYYCQQSNEDPFTFGSGTKLEIK |
| – | – | no binding | no binding | 2E2C (antibody, human IgG1, V domains shown) VH: EFQLQQSGPELVKPGASVKISCKASGYSFTNYYMQWVKQRPGQGLEWIGWIFPGSGESNYNEKFKGKATLSADTSSTTAYMQLSSLTSEDSAVYFCARTWNYDARWGYWGQGTTLTVSS VL: DIVMTQSPASLAVSLGQRATISCIPSESIDSYGISFMHWYQQKPGQPPKLLIYRASNLESGIPARFSGSGSRTDFTLTINPVEADDVATYYCQQSNEDPFTFGSGTKLEIK |
| – | – | no binding | no binding | 2E11 (antibody, human IgG1, V domains shown) VH: QVQLKESGPELVKPGASVKISCKTSGYSFTNYYIHWVKQRPGQGLEWIGWIFPGSGDTNYNEKFKGKATLTADTSSNTASMHLSSLTSEDSAVYFCARTWNYDARWGYWGQGTTLTVSS VL: DIVMTQSPASLAVSLGQRATISCRVSESIDSYGISFMHWYQQKSGQPPKVLIYRASTLESGIPARFSGSGSRTDFTLTINPVEADDVATYYCQQSNEDPFTFGSGTKLEIK |
| – | – | no binding | no binding | 3E7A (antibody, human IgG1, V domains shown) VH: QVQLKQSGPELVKPGASVKISCKASGYSFTNYYIHWVKQRPGQGLEWIGWIFPGSGETNFNEKFKGKATLTADTSSSTAYMQFSSLTSEDSAVYFCARTWNYDARWGYWGQGTTVTVSS VL: DILMTQSPASLAVSLGQRATISCRASEGIDSYGISFMHWYQQKPGQPPTLLIYRASNLESGIPARFSGSGSRTDFTLTINPVEADDVATYYCQQTNEDPFTFGSGTKLEIK |
| – | – | no binding | no binding | 4H3 (antibody, human IgG1, V domains shown) VH: QVQLKESGPELVKPGASVKISCKTSGYIFTNYYIHWVKQRPGQGLEWIGWIFPGSGDTNYNEKFKGKATLTADTSSSTASMQLSSLTSEDSAVYFCARTWNYDARWGYWGQGTTVTVSS VL: DILLTQSPASLAVSLGQRATISCRVSESIDSYGISFMHWYQQKSGQPPKVLIYRASTLESGIPARFSGSGSRTDFTLTINPVEADDVATYYCQQSNEDPFTFGSGTKLEIK |
| – | – | no binding | no binding | 3E9B (antibody, human IgG1, V domains shown) VH: EVQLQESGPELVKPGASVKISCKTSGYSFTNYYIHWVKQRPGQGLEWIGWIFPGSGETNYNEKFKGKATLSADTSSTTAYMQLSSLTSEDSAVYFCARTWNYDARWGYWGQGTTVTVSS VL: EILLTQSPASLAVSLGQRATISCRASETIDSYGISFMHWYQQKPGQPPKLLIYRASNLESGIPARFSGSGSRTDFTLTINPVEADDVATYYCQQSNEDPFTFGSGTKLEIK |
| – | – | no binding | no binding | 6C6 (antibody, human IgG1, V domains shown) VH: EVQLQQSGPELVKPGASVKISCKASGYSFTNFYIHWVKQRPGQGLDWIGWIFPGSGETNYNERFKGKATLTSDTSSSTAYMQLSSLTSEDSAVYFCARSWNYDARWGYWGQGTTLTVSS VL: QIVLTQTPASLAVSLGQRATISCRASESIDSYGISFMHWYQQKPGQPPKLLIYRASNLESGIPARFSGSGSRPDFTLTINPVEADDVATYYCQQSNEDPFTFGSGTKLEIK |
| – | – | no binding | no binding | 3E7B (antibody, human IgG1, V domains shown) VH: QVQLKQSGPELVKPGASVKISCKASGYSFTNYYIHWVKQRPGQGLEWIGWIFPGSGETNFNEKFKGKATLTADTSSSTAYMQFSSLTSEDSAVYFCARTWNYDARWGYWGQGTTVTVSS VL: EIQMTQSPASLAVSLGQRATISCRASEGIDSYGISFMHWYQQKPGQPPTLLIYRASNLVSGIPARFSGSGSRTDFTLTINPVEADDVATYYCQQTNEDPFTFGSGTKLEIK |
| – | – | no binding | no binding | 2C8 (antibody, human IgG1, V domains shown) VH: EVQLKQSGPELVKPGASVKISCKASGYSFTNYYIQWVKQRPGQGLEWIGWIFPGNGETNYNEKFKGKATLTADTSSSTAYMQLSSLTSEDSAVYFCARTWNYDARWGYWGQGTSVTVSS VL: DILLTQSPASLTVSLGQRATISCRANESIDSYGISFMHWYQQKPGQPPKLLIYRASNLDSGIPARFSGSGSRTDFTLTINPVEADDVATYYCQQSNEDPFTFGSGTKLEIK |
| – | – | no binding | no binding | 5D9 (antibody, human IgG1, V domains shown) VH: QVQLKESGPELVKPGASVKISCKASGYSFTNYYIHWVKQRPGQGLEWIGWIFLGSGETNYNEKFKGEAILTADTSSTTAYMQLSSLTSEDSAVYFCARSWNYDARWGYWGQGTTLTVSS VL: EIVLTQSPASLAVSLGQRATISCRASESIDSYGISFIHWYQQKPGQPPKLLIYRASNLESGIPARFSGSGSRTDFTLTINPVEAEDVATYYCQQSNEDPFTFGSGTKLEIK |
